Assay [1] addresses HrGH45, endogenous glycosylated GH45 endo-1,4-β-D-glucanase from the red abalone (Haliotis rufescens) (Haliotis rufescens). Nature of the assay: SEC; calibrated gel filtration on an Agilent Bio SEC-3 HPLC column; 0.1 mg/mL HrGH45 in buffer A (50 mM sodium acetate pH 6.0, 200 mM NaCl, 1 mM EDTA, 0.05% NaN3), 1 mL/min; mass in solution compared with the MALDI-TOF mass of the monomer.

Assay [2] has the same target. Nature of the assay: zymography (SDS-PAGE without reducing agent or heating, in-gel cellulase activity); 12% SDS-PAGE gel with 0.1% (w/v) CMC in the resolving phase, sample not reduced and not heated; Triton X-100 wash, overnight at 37°C in buffer A, Congo red stain; a second gel stained with Coomassie.

Consider “HrGH45, endogenous glycosylated GH45 endo-1,4-β-D-glucanase from the red abalone (Haliotis rufescens) (enzyme)”, for which the stoichiometry N in assay [1] and in assay [2] was 3 throughout.

For the origin of these results see article PMC11025796.
